6 molecules from patent US20210395344A1 can be followed below.

A word on the Kd: it is the concentration at which binding is half-saturated. A low value points to higher affinity.

Holding throughout (details): remark: other sources report otherwise
Assay [1] deals with COVID S1 RBD Fc fusion (Antigen 1) (SARS-CoV-2), P0DTC2. Put plainly: phage ELISA.
Assay [2] deals with SARS-CoV-2 S protein trimer (SARS-CoV-2), P0DTC2. Briefly: column DC/S-T (format not explained).
For assay [3] the target is unchanged. Put plainly: ELISA on coated S trimer; quantity not named.
The target is the same in assay [4]. Put plainly: column DB/S-T (format not explained).
The target is the same in assay [5]. Briefly: column Fc/S-T (format not explained).

B1: 1-30 (antibody, V domains shown)
VH: EVQLLESGGGLVQPGGSLRLSCAASGFTFSSYAMTWVRQAPGKGLEWVSAISGSGGSTFYADSVKGRFTISRDNSKNTLYLQMNSLRAEDTAVYYCTRPPYGDYGDYWGQGTLVTVSS
VL: QSALTQPASVSGSPGQSITISCTGTSRDVGSYNLVSWYQQHPGKAPKLMIYEGTKRPSGVSNRFSGSKSGNTASLTISGLQAEDEADYYCCSYAGSRTPVVFGGGTKLTVL
In assay [1], B1 registered an ELISA fold over background (fold over background) of 1.7. Further, the Kd in assay [2] was 476000 nM. This molecule displayed a S Trimer in assay [3] of 4.02 nM.

B2: 1-4 (antibody, V domains shown)
VH: EVQLLESGGGLVQPGGSLRLSCAASGFTFSSQAMSWVRQAPGKGLEWVSAISGSGGGTYYADSVKGRFTISRDNSKNTLYLQMNSLRAEDTAVYYCAKDRRFGEFDPWGQGTLVTVSS
VL: QSALTQPASVSGSPGQSITISCTGTSSDVGTYNLVSWYQQHPGKAPKLMIYEGSQRPSGVSNRFSGSKSGNTASLTISGLQAEDEADYYCCSYAGSSSFVVFGGGTKLTVL
In assay [1], B2 yielded an ELISA fold over background (fold over background) of 1.4. The results for the dissociation constant (Kd) in assay [4], in assay [2] and in assay [5] were 6.6 nM, 129 nM and 12.3 nM, respectively.

B3: 1-32 (antibody, V domains shown)
VH: EVQLLESGGGLVQPGGSLRLSCAASGFTFSSYAMYWVRQAPGKGLEWVSAISGSGGSTFYADSVKGRFTISRDNSKNTLYLQMNSLRAEDTAVYYCTRPPYGDYGDYWGQGTLVTVSS
VL: QSALTQPASVSGSPGQSITISCTGTSSDVGGYNLVSWYQQHPGKAPKLMIYEGNKRPSGVSNRFSGSKSGNTASLTISGLQAEDEADYYCCSYAGSSTFPVVFGGGTKLTVL
With B3, the ELISA fold over background (fold over background) in assay [1] was determined as 1.5.

B4: 1-28 (antibody, V domains shown)
VH: EVQLLESGGGLVQPGGSLRLSCAASGFTFSSYGMSWVRQAPGKGLEWVSAISGSGGGTYYADSVKGRFTISRDNSKNTLYLQMNSLRAEDTAVYYCASSSSWQFDYWGQGTLVTVSS
VL: QSALTQPASVSGSPGQSITISCTGTSSGVGSYNLVSWYQQHPGKAPKLMIYEGSQRPSGVSNRFSGSKSGNTASLTISGLQAEDEADYYCCSYAGSSTHYVFGGGTKLTVL
Molecule B4 showed an ELISA fold over background (fold over background) in assay [1] of 1.1. Further, the dissociation constant (Kd) came out at 13.4 nM in assay [4], 96.6 nM in assay [2] and 8.6 nM in assay [5].

B5: 1-31 (antibody, V domains shown)
VH: EVQLLESGGGLVQPGGSLRLSCAASGFTFSSYAMNWVRQAPGKGLEWVSAISGSGGSTFYADSVKGRFTISRDNSKNTLYLQMNSLRAEDTAVYYCTRPPYGDYGDYWGQGTLVTVSS
VL: QSALTQPASVSGSPGQSITISCTGTSSDVGKYNLVSWYQQHPGKAPKLMIYEGSQRPSGVSNRFSGSKSGNTASLTISGLQAEDEADYYCCSYAGSRTPVVFGGGTKLTVL
As to B5, the ELISA fold over background (fold over background) in assay [1] stood at 1.3. The S Trimer in assay [3] worked out at 0.8 nM.

B6: 1-3 (antibody, V domains shown)
VH: EVQLLESGGGLVQPGGSLRLSCAASGFTFSSQAMSWVRQAPGKGLEWVSAISGSGGGTYYADSVKGRFTISRDNSKNTLYLQMNSLRAEDTAVYYCAKDRRFGEFDPWGQGTLVTVSS
VL: QSALTQPASVSGSPGQSITISCTGISSDVGSYNLVSWYQQHPGKAPKLMIYEGTKRPSGVSNRFSGSKSGNTASLTISGLQAEDEADYYCCSYAGSSSFVVFGGGTKLTVL
With B6, the ELISA fold over background (fold over background) in assay [1] came to 1.8. Besides, the Kd was found to be 423 nM in assay [4], 5310 nM in assay [2] and 10 nM in assay [5].
